{"source": "paper doi:10.1101/2024.03.07.583884", "key": {"[1]": {"molecular_target": "mACE 1-357 ACE2-Cherry hybrid (mouse | human) (UniProt Q8R0I0)"}, "[2]": {"molecular_target": "Pus8AA+LMY➔A-ACE2-Cherry (human) (UniProt Q9BYF1)"}}, "data": [{"substance": "OM.BA.1-RBD-β2AR-GFP (from UniProt P0DTC2 333-529) (domain or fragment)", "values": [{"measurement": "loss of ACE2 fluorescence, DPF assay", "setting": "[1]", "value": 24.8, "unit": "%"}, {"measurement": "reduction of Pus8AA +LMY➔A-Cherry fluorescence, DPF assay", "setting": "[2]", "value": 17.2, "unit": "%"}]}]}
